The text below walks through data of patent US20150361450.

Data set [1] has as its system KARS2 (mature mitochondrial lysyl-tRNA synthetase, lacking predicted mitochondrial targeting presequence) (Homo sapiens). To be noted: CITED apparent Kd, printed as 250+/240; cited from earlier work.
In data set [2] the test system is preKARS2 (precursor of human mitochondrial lysyl-tRNA synthetase) (Homo sapiens), Q15046-2. The following applies: CITED targeting sequence said to completely abolish RNA binding; cited from earlier work.
For data set [3], the system named is preMSK1p (precursor of yeast mitochondrial lysyl-tRNA synthetase) (Saccharomyces cerevisiae). To be noted: CITED previously evaluated apparent Kd, printed as 280+/260; cited from earlier work.
Data set [4] has as its system preKARS2 (precursor of human mitochondrial lysyl-tRNA synthetase) (Homo sapiens), Q15046-2. The experiment in a line: EMSA. The following applies: apparent Kd, error printed as 300+/250 (likely +/-50); 20 mM Tris-HCl pH 7.5, 150 mM NaCl, 10 mM MgCl2, 30 C. (A gel shift assay detects complexes by their altered migration in electrophoresis.)

Where two headings read alike, the source gives them in different places.

preKARS2 (precursor of human mitochondrial lysyl-tRNA synthetase) (Homo sapiens), Q15046-2, sequence (Q15046 other isoform, or with tags, fused parts or gaps): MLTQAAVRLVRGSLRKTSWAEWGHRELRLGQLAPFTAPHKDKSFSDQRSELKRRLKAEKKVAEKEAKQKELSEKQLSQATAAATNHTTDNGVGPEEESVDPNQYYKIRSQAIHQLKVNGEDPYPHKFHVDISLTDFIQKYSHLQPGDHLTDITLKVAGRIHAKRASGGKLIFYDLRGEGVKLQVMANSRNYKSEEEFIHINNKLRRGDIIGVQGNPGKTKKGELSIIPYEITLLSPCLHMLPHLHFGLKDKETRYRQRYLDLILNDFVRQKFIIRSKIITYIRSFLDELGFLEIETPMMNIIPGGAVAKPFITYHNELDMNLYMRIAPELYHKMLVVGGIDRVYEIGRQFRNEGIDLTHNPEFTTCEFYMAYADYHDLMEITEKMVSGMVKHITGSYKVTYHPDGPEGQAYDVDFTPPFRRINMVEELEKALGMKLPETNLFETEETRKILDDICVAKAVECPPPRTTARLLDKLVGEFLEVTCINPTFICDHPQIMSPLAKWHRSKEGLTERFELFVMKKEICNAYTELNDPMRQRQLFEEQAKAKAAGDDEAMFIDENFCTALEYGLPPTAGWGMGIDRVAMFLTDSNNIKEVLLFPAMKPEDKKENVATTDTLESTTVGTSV

For human cytosolic tRNALys3, the Kd is 250 nM in data set [1] and 100000 nM in data set [2].
Take tRK1 (yeast tRNALys CUU, T7 transcript): the values for the Kd in data set [3] and in data set [4] were 280 nM and 300 nM, respectively.
